Data: article PMC8960973, “Pretransition state and apo structures of the filament-forming enzyme SgrAI elucidate mechanisms of activation and substrate specificity” (The Journal of Biological Chemistry, 2022)

T1: SgrAI restriction endonuclease (UniProt Q9F6L0 1-339)
T1 sequence: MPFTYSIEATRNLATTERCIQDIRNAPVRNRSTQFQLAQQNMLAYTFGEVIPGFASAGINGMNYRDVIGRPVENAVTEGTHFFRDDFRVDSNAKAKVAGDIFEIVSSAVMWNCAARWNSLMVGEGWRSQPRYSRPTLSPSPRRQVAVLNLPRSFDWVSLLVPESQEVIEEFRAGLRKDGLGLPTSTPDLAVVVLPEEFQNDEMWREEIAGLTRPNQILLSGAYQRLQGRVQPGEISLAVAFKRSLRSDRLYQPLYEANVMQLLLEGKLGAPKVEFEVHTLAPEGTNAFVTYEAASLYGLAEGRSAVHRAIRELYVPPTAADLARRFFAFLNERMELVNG

B1: SgrAI type II restriction endonuclease, wildtype (enzyme)
chain: T1 sequence
notes: homodimer of 74 kDa; in the crystal it is DNA-free with Ca2+; also called SgrAI dimer; source: E. coli BL21 (DE3), purified (Talon resin, heparin FF, Superdex-200 SEC)
B2: 40-1 (40 bp primary site DNA) (dsDNA)
DNA 1: GATGCGTGGGTCTTCACACCGGTGGATGCGTGGGTCTTCA
DNA 2: TGAAGACCCACGCATCCACCGGTGTGAAGACCCACGCATC

Legend:
[1] = target: the molecule itself; assay: crystal structure; DNA-free (apo) SgrAI with Ca2+; hanging drop, 5% PEG 4000, 0.1 M imidazole pH 6.5, 0.1 M NaCl, 5 mM Ca(OAc)2, 17 °C; two chains per asymmetric unit forming the dimer
[2] = target: the molecule itself; assay: cryo-EM structure; run-on oligomeric filaments of SgrAI dimers bound to 40 bp primary site DNA (CACCGGTG, intact scissile phosphate); 4.9 uM SgrAI, 41 uM dsDNA, 10 mM Ca2+, room temperature 1 h; helical symmetry rise 21.2 A, twist -85.8 deg
[3] = target: T1, SgrAI restriction endonuclease; assay: cryo-EM structure (2.7 A); Ca2+ (sites A and B), filamentous, intact scissile phosphate; EM sample buffer not given in the material; Ca2+ in place of Mg2+; SgrAI stored after SEC in 25 mM Tris-HCl pH 8, 150 mM NaCl, 1 mM DTT; conditions: protein: recombinant; chain copies: 2; blunt

Row | Binder | stoichiometry N [1] [chains per dimer] | stoichiometry N [2] | binding result [3]
1 | B1 | 2 | < 10 DBDs (DNA-bound SgrAI dimers) per filament | 
2 | B2 |  |  | binds
